This note sets out measurements from US20240343818A1, “Antibodies Having Humanized Framework Regions” (priority 2021, published 2024).

In one data set the test system is L-82 xenograft. Put plainly: L-82 xenograft with CD30 ADCs. The format is in vivo, mice. As to the method: Female NOD/SCID mice were used (8 mice/group) for the study. Animals were inoculated subcutaneously in the flank with 10 million cells in 50% PBS/50% Matrigel. When tumors reached an average volume of 100 mm^3, all animals were treated (Day 0) with a single 10 mg/kg intravenous dose of human IgG. Then, on Day 1, animals were treated with vehicle alone, with unconjugated antibody (3 mg/kg), or with an ADC at 1.5 or 3 mg/kg. The animals were monitored twice weekly for body weight and tumor size. Animals were euthanized when tumors reached 2000 mm^3. ADCs were highly efficacious in this study.

Another data set deals with Karpas 299 xenograft. Briefly: Karpas 299 xenograft with CD30 ADCs. The class given is in vivo, mice. As to the method:
Female CB17/SCID mice were used (6 mice/group) for the study. Animals were inoculated subcutaneously in the flank with 5 million cells in PBS. When tumors reached an average volume of 214 mm^3, animals were treated with vehicle alone, with unconjugated antibody (3 mg/kg), or with an ADC at 1.5 or 3 mg/kg. The animals were monitored twice weekly for body weight and tumor size. Animals were euthanized when tumors reached 2000 mm^3. ADCs were highly efficacious in this study.

Data set [1] in a line: Melting temperature by differential scanning fluorimetry. The class given is physicochemical. Background: Differential scanning fluorimetry follows unfolding on heating by fluorescence.
Data set [2] in a line: Forced stability of ADCs, high-molecular weight species by size-exclusion chromatography. The format is physicochemical. As to conditions: for HWM pH 5.5, 3 d 45° C.: pH 5.5, 3 d at 45° C.; for HWM pH 5.5, 3 d −80° C.: pH 5.5, 3 d at −80° C.; for HWM pH 7.2, 3 d 45° C.: pH 7.2, 3 d at 45° C.; for HWM pH 7.2, 3 d −80° C.: pH 7.2, 3 d at −80° C. The source says: ADCs were conjugated at the antibody heavy chain C-terminus to a noncleavable linker bearing a maytansine payload for a DAR of ˜1.9. Samples were placed in buffer at the designated pH and temperature for 3 days, then analyzed by size-exclusion chromatography. HMW, high-molecular weight species.
(In general: Size exclusion chromatography separates by hydrodynamic size, large species first.)

Where [3] appears, read: single intravenous dose, ADC 1.5 or 3 mg/kg, unconjugated antibody 3 mg/kg.
[4] abbreviates: ADC (heavy chain C-terminus, noncleavable maytansine linker-payload, DAR ~1.9).

Regarding “Adcetris: anti-CD30 ADC used as comparator in the xenograft studies [reference compound]”, the complete responses in the data set with L-82 xenograft (L-82 xenograft, NOD/SCID mice, single intravenous dose 3 mg/kg (equal dosing)) is 8 out of 8 mice/group; in the data set with Karpas 299 xenograft (Karpas 299 xenograft, CB17/SCID mice, 6 mice/group, single intravenous dose 3 mg/kg (equal dosing)) it was 6/6.

B1: VH4/VL4 antibody (antibody, V domains shown)
VH: QVQLVQSGAEVKKPGASVKVSCKASGYTFTDYYITWVRQAPGQGLEWMGWIYPGSGNTKYNEKFKGRVTITVDTSASTAYMELSSLRSEDTAVYYCANYGNYWFAYWGQGTLVTVSS
VL: DIVLTQSPDSLAVSLGERATINCKASQSVDFDGDSYMNWYQQKPGQPPKLLIYAASNRESGVPDRFSGSGSGTDFTLTISSLQAEDVAVYYCQQSNEDPWTFGGGTKVEIK
Take B1: the “efficacy in L-82 xenograft” value in the data set with L-82 xenograft (setting [3]) is on record as “minimal activity”. For the same molecule, in the data set with Karpas 299 xenograft (setting [3]), the “efficacy in Karpas 299 xenograft” value is on record as “minimal activity”.

B2: H1/L4 (conjugate)
VH: QVQLQQSGPEVVKPGASVKVSCKASGYTFTDYYMTWVRQKPGQGLEWMGWIYPGSGNTKYNQKFKGRVTITVDTSSSTAFMELSSLTSEDTAVYFCANYGNYWFAYWGQGTQVTVSA
VL: DIVLTQSPDSLAVSLGERATINCKASQSVDFDGDSYMNWYQQKPGQPPKLLIYAASNRESGVPDRFSGSGSGTDFTLTISSLQAEDVAVYYCQQSNEDPWTFGGGTKVEIK
On to B2, for which the “Fab Tm” value in data set [1] (setting [4]) worked out at 80 °C. Besides, the “Fab Tm” value in data set [1] (Antibody) was 81.17 °C. In addition, in data set [2], the “HWM pH 5.5, 3 d 45° C.” value is given as 10.05%; the “HWM pH 5.5, 3 d −80° C.” value was 1.66%; the “HWM pH 7.2, 3 d 45° C.” value came out at 16.42%; the “HWM pH 7.2, 3 d −80° C.” value is reported as 2.90%.

B3: H4/L2 (conjugate)
VH: QVQLVQSGAEVKKPGASVKVSCKASGYTFTDYYITWVRQAPGQGLEWMGWIYPGSGNTKYNEKFKGRVTITVDTSASTAYMELSSLRSEDTAVYYCANYGNYWFAYWGQGTLVTVSS
VL: DIVMTQSPASLAVSLGERATISCKSSQSVDFDGDSYLNWYQQKPGQPPKLLIYAASTRESGVPARFSGSGSGTDFTLTISSLQEEDVATYYCQQSNEDPWTFGGGTKVEIK
In the case of B3, the “Fab Tm” value in data set [1] (setting [4]) was 73 °C. Moreover, in data set [1] (Antibody), the “Fab Tm” value was 75.54 °C. Moreover, in data set [2], the “HWM pH 5.5, 3 d 45° C.” value is listed as 6.18%; the “HWM pH 5.5, 3 d −80° C.” value is 1.24%; the “HWM pH 7.2, 3 d 45° C.” value worked out at 30.38%; the “HWM pH 7.2, 3 d −80° C.” value was 2.37%.

B4: H4/L4 (conjugate)
VH: QVQLVQSGAEVKKPGASVKVSCKASGYTFTDYYITWVRQAPGQGLEWMGWIYPGSGNTKYNEKFKGRVTITVDTSASTAYMELSSLRSEDTAVYYCANYGNYWFAYWGQGTLVTVSS
VL: DIVLTQSPDSLAVSLGERATINCKASQSVDFDGDSYMNWYQQKPGQPPKLLIYAASNRESGVPDRFSGSGSGTDFTLTISSLQAEDVAVYYCQQSNEDPWTFGGGTKVEIK
For the molecule B4, the “Fab Tm” value in data set [1] (setting [4]) stood at 82 °C. Also, the “Fab Tm” value in data set [1] (Antibody) came out at 80.43 °C. In data set [2], the “HWM pH 5.5, 3 d 45° C.” value is 7.70%; the “HWM pH 5.5, 3 d −80° C.” value turned out to be 1.66%; the “HWM pH 7.2, 3 d 45° C.” value worked out at 23.28%; the “HWM pH 7.2, 3 d −80° C.” value is on record as 3.14%.
